Data set [1] deals with the molecule itself. The data set can be described thus: native gel or EMSA; BN-PAGE (NativePAGE 4-16% Bis-Tris) of liver mitochondria solubilised in 2% n-dodecyl-β-D-maltoside, 0.5% G-250; immunoblot for GCDH; SIRT5WT and SIRT5KO mice, fed or 24 h fasted; GCDHKO mitochondria as control for the band.
Data set [2] deals with the molecule itself. The data set can be described thus: SEC; Superdex 200 Increase 10/300 GL, 25 mM Hepes pH 7.8, 30 mM NaCl, 0.75 ml/min; column calibrated with standard proteins; comparison of unmodified and modified GCDH told as data not shown. Background: Size exclusion chromatography separates by hydrodynamic size, large species first.

Four proteins from article PMC8969154, “Deglutarylation of glutaryl-CoA dehydrogenase by deacylating enzyme SIRT5 promotes lysine oxidation in mice” (The Journal of Biological Chemistry, 2022) can be followed below.

B1: glutaryl-CoA dehydrogenase (GCDH), endogenous, mouse liver mitochondria (enzyme, mouse (endogenous in liver mitochondria), UniProt Q60759 45-438, looked up)
chain: RPVFDWKDPLILEEQLTADEKLIRDTFRNYCQERLMSRILLANRNEVFHRDIVYEMGELGVLGPTIKGYGCAGVSSVAYGLLTRELERVDSGYRSMMSVQSSLVMHPIYTYGSEEQRQKYLPGLAKGELLGCFGLTEPNHGSDPGGMETRARHNPSNQSYTLSGTKTWITNSPVADLFIVWARCEDNCIRGFILEKGMRGLSAPRIEGKFSLRASATGMIIMDSVEVPEENVLPNVSSLAGPFGCLNTARYGITWGVLGAAEFCLHTARQYALDRIQFGVPLARNQLVQKKLADMLTEITLGLHACLQLGRLKDQDKATPEMVSMLKRNNCGKALDIARQARDILGGNGISDEYHVIRHAMNLEAVNTYEGTHDIHALILGRAITGIQAFTVGK
notes: glutaryl-CoA dehydrogenase, mouse, endogenous in liver mitochondria of SIRT5WT and SIRT5KO mice (GCDHKO mitochondria used to identify the band); Glutarylation state differs with genotype and feeding state (higher in starved SIRT5KO liver); also called GCDH tetramer; source: endogenous, mouse liver mitochondria solubilised in 2% n-dodecyl-β-D-maltoside
B1: the stoichiometry N (as a rule, a count of units in the complex or per binding partner) in data set [1] worked out at 4.

B2: human recombinant GCDH protein (hGCDH-6XHIS), unmodified (enzyme, UniProt Q92947 45-438, looked up)
chain: RPEFDWQDPLVLEEQLTTDEILIRDTFRTYCQERLMPRILLANRNEVFHREIISEMGELGVLGPTIKGYGCAGVSSVAYGLLARELERVDSGYRSAMSVQSSLVMHPIYAYGSEEQRQKYLPQLAKGELLGCFGLTEPNSGSDPSSMETRAHYNSSNKSYTLNGTKTWITNSPMADLFVVWARCEDGCIRGFLLEKGMRGLSAPRIQGKFSLRASATGMIIMDGVEVPEENVLPGASSLGGPFGCLNNARYGIAWGVLGASEFCLHTARQYALDRMQFGVPLARNQLIQKKLADMLTEITLGLHACLQLGRLKDQDKAAPEMVSLLKRNNCGKALDIARQARDMLGGNGISDEYHVIRHAMNLEAVNTYEGTHDIHALILGRAITGIQAFTASK
notes: hGCDH-6XHIS 'modified from UniProtKB - Q92947'; printed residue numbers count on the full-length human GCDH protein; also called recombinant human GCDH; unmodified GCDH
For the protein B2, in data set [2], the “stoichiometry N” value stood at 4.

B3: chemically succinylated human recombinant GCDH (succinyl-GCDH) (enzyme, UniProt Q92947 45-438, looked up)
chain: RPEFDWQDPLVLEEQLTTDEILIRDTFRTYCQERLMPRILLANRNEVFHREIISEMGELGVLGPTIKGYGCAGVSSVAYGLLARELERVDSGYRSAMSVQSSLVMHPIYAYGSEEQRQKYLPQLAKGELLGCFGLTEPNSGSDPSSMETRAHYNSSNKSYTLNGTKTWITNSPMADLFVVWARCEDGCIRGFLLEKGMRGLSAPRIQGKFSLRASATGMIIMDGVEVPEENVLPGASSLGGPFGCLNNARYGIAWGVLGASEFCLHTARQYALDRMQFGVPLARNQLIQKKLADMLTEITLGLHACLQLGRLKDQDKAAPEMVSLLKRNNCGKALDIARQARDMLGGNGISDEYHVIRHAMNLEAVNTYEGTHDIHALILGRAITGIQAFTASK
modifications: succinyl-lysine by chemical succinylation: 11 sites found (shown in Fig. S3D, not given)
notes: as the chain of m2, chemically succinylated; printed residue numbers count on the full-length human GCDH protein; also called succinylated GCDH; modified GCDH
Take B3: the “stoichiometry N” value in data set [2] was 4.

B4: chemically glutarylated human recombinant GCDH (glutaryl-GCDH) (enzyme, UniProt Q92947 45-438, looked up)
chain: RPEFDWQDPLVLEEQLTTDEILIRDTFRTYCQERLMPRILLANRNEVFHREIISEMGELGVLGPTIKGYGCAGVSSVAYGLLARELERVDSGYRSAMSVQSSLVMHPIYAYGSEEQRQKYLPQLAKGELLGCFGLTEPNSGSDPSSMETRAHYNSSNKSYTLNGTKTWITNSPMADLFVVWARCEDGCIRGFLLEKGMRGLSAPRIQGKFSLRASATGMIIMDGVEVPEENVLPGASSLGGPFGCLNNARYGIAWGVLGASEFCLHTARQYALDRMQFGVPLARNQLIQKKLADMLTEITLGLHACLQLGRLKDQDKAAPEMVSLLKRNNCGKALDIARQARDMLGGNGISDEYHVIRHAMNLEAVNTYEGTHDIHALILGRAITGIQAFTASK
modifications: glutaryl-lysine by chemical glutarylation: 10 sites found; heavily glutarylated K163, K170, K202, K240, K253, K357, K371, K377 (numbers of full-length human GCDH)
notes: as the chain of m2, chemically glutarylated; printed residue numbers count on the full-length human GCDH protein; also called glutarylated GCDH; modified GCDH
In the case of B4, the “stoichiometry N” value in data set [2] was determined as 4.
